Laboratory results as given in patent EP4659811A1 (Université de Strasbourg, dated 2025).
Where a chain is given by its changes, count along the chain named.

B1: antibody B5P4 (antibody, V domains shown)
VH: QVQLVQSGAEVKKPGSSVKVSCKASGGRFSRYGSSWVRQAPGQGLEWMGGIIPLLGTANYAQKFQDRVSITADESTSTVYMHLSSLRSEDTAVYYCATARREYDRPGAEYFIQWGQGTLVTVSS
VL: EIVMTQSPATLSVSPGERATLSCRASQSVSTNLAWYQQKPGQAPRLLIYDAFLRATGIPARFSGSGSGTEFTLTISSLQPEDFAVYYCQQYNYWPPLTFGGGTKVEIK
B2: antibody G8P7 (antibody, V domains shown)
VH: QLQLQESGPGLVQPSETLSLTCTVSGGYISTSSYYWGWIRQPPGKGLEWIGSIEYSGSTYYNPSLKSRVTISVDTSKNQFSLKLSSVTAADTAVYYCASANSKYYDSGGYYAPGALDLWGQGTMVTVSS
VL: EIVMTQSPATLSVSPGERATLSCRASQSVSSHLAWYQHKRGQAPRLLIYAASSRATGIPARFSGRGSGTEFTLTISSLQSEDFAVYYCQQYNNWPPGYSFGQGTKLEIK
B3: antibody E5P6 (antibody, V domains shown)
VH: EVQLVESGGGVVQPGRSLRLSCAASGFIFNNHGMHWVRQAPGKGLEWVAGISYDGKKEYYIGSVKGRFTISRDNSRNTLYLHMNGLRPEDTAVYYCAKEAYGSGSPCDYWGQGTLVTVSS
VL: EIVLTQSPGTLSLSPGERATLSCRASQRVSSNYLAWYQQKPGQAPRLLIYGASSRATGIPDRFSGSGSGTDFTLTISRLEPEDFAVYYCQQYGTSPRSFGRGTKLEIK
B4: antibody C9P1 (antibody, V domains shown)
VH: EVQLLESGGGLVQPGGSLRLSCVTSGFTFSSYSMTWVRQAPGKGLEWVSYISSSSRTISYADSVQGRFTISRDNAKNVLYLQMNSLRAEDTAVYYCARQAVAHFDYWGQGTLVTVSS
VL: B3 VL with R101Q, L105V
B5: antibody B8P7 (antibody, V domains shown)
VH: QVQLQESGPGLVRPSETLSLTCTVSGGSISPYYWNWIRQPPGKGLEWIGYIYYSGNTKYNPSLKSRVTISVDTSKNQFSLKLSSVSAADTAVYYCARDSCSGTCYLGDNWFDPWGQGTLVTVSS
VL: QSVLTQPPSVSGAPGQRVTISCTGSSSNIGANNDVHWYQHLPGTAPKLLIYGNNHRPSGVPDRFSGSKSGTSASLAITGLQAEDEADYYCQSYDSSLSTSKVFGGGTKLTVL
B6: antibody G6P7 (antibody, V domains shown)
VH: B5 VH
VL: B5 VL with S9P
B7: antibody C4P6 (antibody, V domains shown)
VH: B5 VH with D108G
VL: B5 VL
B8: antibody B7P6 (antibody, V domains shown)
VH: EVQLVQSGAELKKPGESLKISCKGSGFTFTNYWIAWVRQMPGKGLEWMGIIYPDDSDARYSPSFEGQVTISVDKSISTAYLQWSSLKASDTAIYYCARGGFCSGSVCYNPAWFDLWGQGTLVTVSS
VL: DIQMTQSPSSLSASVGDRVTITCRASQTINTYLNWYLQKPGKAPKLLISDASSLETGVPSRFSGSGSGTDFTLTISSLQPDDFATYYCQQSYSTPLTFGGGTKVEIK
B9: antibody G7P7 (antibody, V domains shown)
VH: QVQLQESGPGLVRPSQTLSLTCTVSGGSMTSGSYYWSWIRQPAEKGLEWIGRIYTSGRTDYNPSLKSRVAMSIDTSKNQFSLRLTSVTAADTAVYYCARWGDSSAYYYVGDPWGRGTPVTVSS
VL: DIQMTQSPSSLSASIGDRVTITCRASQNINTYLYWYQQKPGKAPQLLIYAASNLQTGAPSRFSGSGSGTDFTLTISSLQPADFATYYCQQSFSLPHTFGQGTKLEIK
B10: antibody C6P7 (antibody, V domains shown)
VH: B9 VH
VL: B9 VL with L104V
B11: antibody G8P6 (antibody, V domains shown)
VH: B9 VH with P118T
VL: B9 VL
B12: antibody E2P6 (antibody, V domains shown)
VH: EVQLVESGGGLIQPGGSLRLSCAASGFTVSTNCMSWVRQAPGTGLEWVSVIYSGGTTYYADSVKGRFTISRDNSRNTLYLQMNGLRAEDTAVYYCARSVDTYDIYALDVWGQGTTVTVSS
VL: DIQMTQSPSTLSASVGDRVTITCRASQSISRWLAWYQQKPGKAPKLLIYKASGLHSGAPSRFSGSGSGTEFTLTISGLQPDDFATYFCQQYNSYPWTFGQGTKVEIK
B13: antibody C11P1 (antibody, V domains shown)
VH: QVQLQESGPGLVKPSETLSLTCTVSGGSIRNSYWSWIRQPPGKGLEWIGYIYYTGTTNSNPSLKSRATISVHMSQNQISLKLNSVTPADTAVYYCAQGGGSGDLHYWGQGTLVTVSS
VL: NFMLTQPASVSGSPGQSITISCTGTRSDVGGYNYVSWYQQHPGKAPKLMIYDISSRPSGVSNRFSASKSGNTASLTISGLQAEDEADYYCISFATGYTWVFGGGTRLTVL
B14: antibody B2P8 (antibody, V domains shown)
VH: B13 VH with A67V
VL: EIVLTQSPDTLSLSPGARATLSCRASQSVRSNYLAWYQQKPGQAPRLLIYGASSRATAIPDRFSGSGSGTDFTLTITRLEPEDFAVYYCHQYASSPRTFGQGTKVEIK
B15: antibody G5P1 (antibody, V domains shown)
VH: B13 VH with E16G, A67V, Q75R
VL: B13 VL
B16: antibody E7P5 (antibody, V domains shown)
VH: B13 VH with P40S, T56S, A67L, I69V
VL: B13 VL with N1Q, F2S, M3A, M49I, R106S
B17: antibody F3P6 (antibody, V domains shown)
VH: QVQLVQSGAEVKKPGASVKVSCKASGYTFTTHIIHWVRQAPGQRLEWMGWINAGNGNTHYSEKFQGRVTLTRDTSASTAYMELSSLRSEDTAIYYCAREDQWLGRSPLEYWGQGTLVTVSS
VL: EIVLTQSPGTLSLSPGERATLSCRASQSVSSSYLAWYQHKPGQAPRLLIYGASSRATGIPDRFSGSGSGTDFTLTISRLEPEDFAVYYCQQYGNSYPWTFGQGTKVEIK
B18: antibody G5P6 (antibody, V domains shown)
VH: B17 VH with H59K
VL: B17 VL with I76V
B19: antibody B9P4 (antibody, V domains shown)
VH: EVQLVESGGGVVQPGRSLRLSCAASGFTFSSYGMHWVRQAPGKGLEWVAVISKDGSNKYEADFVKGRFTISRDNSKNTLYLQMNSLRAEDTAVYYCAKIPLRRYSDSGDYSSGDFWGQGTLVTVSS
VL: DVVMTQSPLSLTVTLGQPASISCRSSENLVYSDGNTYLSWFQQRPGQSPRRLIYKVSTRDSGVPDRFSGSGSGTDFTLKISRVEAEDVGVYYCMQTTHWPPLTFGGGTKVEIK

Key:
[1] = target: VP1 capsid protein on BKV pseudovirions of genotype IVc2 (A-66H; AB369093) (BK virus genotype IVc2 (A-66H)); test: cell-based or functional assay
[2] = target: VP1 capsid protein on BKV pseudovirions of genotype Ia (BK-D; JF894228) (BK virus genotype Ia (BK-D)); test: cell-based or functional assay
[3] = target: VP1 capsid protein on BKV pseudovirions of genotype II (GBR-12; AB263920) (BK virus genotype II (GBR-12)); test: cell-based or functional assay
[4] = target: T1, VP1 pentamer of BKV genotype II (recombinant) (BK virus genotype II, UniProt P14996 30-300); test: ELISA, coated VP1 pentamer
T1 construct: also called GII; VP1 geno II pentamer; not shown: N-terminal His-tag of pESPRIT002; C-terminal biotin acceptor peptide (BAP) of pESPRIT002

[5] = target: T2, VP1 pentamer of BKV genotype IV (recombinant) (BK virus genotype IV, UniProt P14996 30-300); test: ELISA, coated VP1 pentamer
T2 construct: also called GIV; VP1 BKV subtype IV; not shown: N-terminal His-tag of pESPRIT002; C-terminal biotin acceptor peptide (BAP) of pESPRIT002

Binder	Neutralization PSV IC50 [1] [µg/mL]	Neutralization PSV IC50 [2] [µg/mL]	Neutralization PSV IC50 [3] [µg/mL]	binding result [4]	binding result [5]	EC50 [4] [µg/mL]	EC50 [5] [µg/mL]
B1	> 50	> 3.12	> 50	no binding (tested: starting at 50 µg/mL)	no binding (tested: starting at 50 µg/mL)	–	–
B2	> 50	> 50	21.3	–	–	25	5
B3	> 50	> 50	> 50	–	–	6	5
B4	> 50	> 50	> 50	no binding (tested: starting at 50 µg/mL)	no binding (tested: starting at 50 µg/mL)	–	–
B5	0.164	0.0019	0.0004	–	–	0.04	3
B6	0.883	0.0038	0.0041	–	–	0.2	2.5
B7	0.726	0.32	0.103	–	–	2.5	2.25
B8	0.121	0.0479	0.0044	–	–	0.04	0.1
B9	0.0036	12.5	0.0007	–	–	0.06	0.04
B10	0.0053	0.104	0.0002	–	–	0.55	0.08
B11	0.0582	6.44	0.0058	–	–	0.08	0.06
B12	> 50	> 50	> 50	–	–	0.14	0.6
B13	0.0942	0.351	0.0015	–	–	0.045	0.22
B14	> 50	> 50	> 50	–	–	5	12
B15	0.108	0.538	0.0016	–	–	0.07	2.5
B16	0.0056	0.0719	0.0002	–	–	0.055	0.08
B17	0.262	0.363	0.0062	–	–	0.15	1.25
B18	0.0889	0.299	0.0082	–	–	0.28	0.7
B19	> 50	4.96	16.3	–	–	≥ 7	≥ 10
